Data: the supplement of paper PMC7125110
± gives the standard error. For some of these results: This sample holds only a part of the variants without activity.

B1: glmS ribozyme (parent)
chain: AUAAAAGCGCCAGAACUACAGAAAUGUAGUUGACGAGGAGGAGGUUUAUCGAAUUUUCGGCGGAUGCCUCCAAA

Legend:
Settings in all cases: with glucosamine-6-phosphate
glucosamine-6-phosphate [1] = variants of: B1; experiment: kcat; higher = faster cleavage; RNA array
Summary of the method: (§1)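 Using a hybridised Cy3 probe at 37 °C, barcoded ribozyme variants transcribed in situ by E. coli RNA polymerase on sequenced MiSeq chips were monitored across tiles imaged over ~14 h. The flow contained glucosamine-6-phosphate from 40 μM to 10 mM in HEPES/KCl/Mg(OAc)2 buffer. Signals were normalised to baseline and to non-cleaving reference variants before per-tile medians were fit to one- or two-exponential decays to yield kobs. Weighted Michaelis–Menten fits across concentrations gave kcat and KM.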

glucosamine-6-phosphate [2] = variants of: B1; experiment: KM; higher = weaker cofactor use; RNA array
Summary of the method: as §1

glucosamine-6-phosphate [3] = variants of: B1; experiment: self-cleavage kobs at 2500 uM GlcN6P; higher = faster cleavage; RNA array
Summary of the method: as §1

glucosamine-6-phosphate [4] = variants of: B1; experiment: self-cleavage kobs at 10000 uM GlcN6P; higher = faster cleavage; RNA array
Summary of the method: as §1

glucosamine-6-phosphate [5] = variants of: B1; experiment: self-cleavage kobs at 40 uM GlcN6P; higher = faster cleavage; RNA array
Summary of the method: as §1

glucosamine-6-phosphate [6] = variants of: B1; experiment: self-cleavage kobs at 640 uM GlcN6P; higher = faster cleavage; RNA array
Summary of the method: as §1

glucosamine-6-phosphate [7] = variants of: B1; experiment: self-cleavage kobs at 160 uM GlcN6P; higher = faster cleavage; RNA array
Summary of the method: as §1

Variant | kcat (glucosamine-6-phosphate [1]) | KM (glucosamine-6-phosphate [2]) | self-cleavage kobs at 2500 uM GlcN6P (glucosamine-6-phosphate [3]) | self-cleavage kobs at 10000 uM GlcN6P (glucosamine-6-phosphate [4]) | self-cleavage kobs at 40 uM GlcN6P (glucosamine-6-phosphate [5]) | self-cleavage kobs at 640 uM GlcN6P (glucosamine-6-phosphate [6]) | self-cleavage kobs at 160 uM GlcN6P (glucosamine-6-phosphate [7])
A15U A36G U69C C70A | 1.84e-05 ± 4.3e-06 s⁻¹ |  |  |  |  |  | 
A39U A48C | 0.000221 ± 2.1e-05 s⁻¹ | 836 ± 370 µM | 0.000181 ± 1.8e-05 s⁻¹ | 0.000196 ± 1.6e-05 s⁻¹ |  |  | 
G29U C58U C68U | 3.99e-05 ± 1.3e-05 s⁻¹ |  | 5.55e-05 ± 2.2e-05 s⁻¹ |  |  |  | 
U45C U65A C67G | 0.00116 ± 0.00022 s⁻¹ | 1660 ± 630 µM |  | 0.000996 ± 0.00022 s⁻¹ | 3.4e-05 ± 1.6e-05 s⁻¹ | 0.000279 ± 0.0001 s⁻¹ | 
U31A U45C | 0.00168 ± 0.00049 s⁻¹ | 3380 ± 1600 µM | 0.000998 ± 0.00023 s⁻¹ | 0.00116 ± 0.00024 s⁻¹ |  | 0.000288 ± 8.9e-05 s⁻¹ | 
U31A U45G | 0.0028 ± 0.00084 s⁻¹ | 1730 ± 710 µM | 0.00203 ± 0.00033 s⁻¹ | 0.00194 ± 0.00049 s⁻¹ | 7.39e-05 ± 1.2e-05 s⁻¹ | 0.000882 ± 0.00014 s⁻¹ | 0.000168 ± 4e-05 s⁻¹
C61A C68G | 1.96e-05 ± 3.4e-06 s⁻¹ |  |  |  |  |  | 
C61A C68U | 1.56e-05 ± 2e-06 s⁻¹ |  |  |  |  |  | 
G41A U46G C70U | 0.00726 ± 0.0013 s⁻¹ | 620 ± 170 µM |  | 0.00749 ± 0.002 s⁻¹ | 0.000436 ± 0.0001 s⁻¹ | 0.00452 ± 0.0018 s⁻¹ | 
A20C | 0.0144 ± 0.0036 s⁻¹ | 327 ± 110 µM | 0.0111 ± 0.0039 s⁻¹ |  | 0.00153 ± 0.00021 s⁻¹ | 0.00992 ± 0.003 s⁻¹ | 0.00529 ± 0.0011 s⁻¹
G44A | 0.00053 ± 6.3e-05 s⁻¹ | 1820 ± 420 µM | 0.000389 ± 1e-05 s⁻¹ | 0.000426 ± 8.1e-06 s⁻¹ |  | 0.000135 ± 3e-06 s⁻¹ | 3.7e-05 ± 2.4e-06 s⁻¹
U56A U57G | 0.000127 ± 3.4e-05 s⁻¹ |  | 4.92e-05 ± 1e-05 s⁻¹ | 0.000102 ± 2e-05 s⁻¹ |  | 3.45e-05 ± 1.3e-05 s⁻¹ | 
C11G A12G | < 1e-05 s⁻¹ | 16.2 ± 6.9 µM |  | < 1e-05 s⁻¹ | < 1e-05 s⁻¹ |  | < 1e-05 s⁻¹
U30G U54C | 0.00885 ± 0.00078 s⁻¹ | 2170 ± 270 µM | 0.00471 ± 0.0008 s⁻¹ | 0.00714 ± 0.001 s⁻¹ | 0.000148 ± 2.5e-05 s⁻¹ | 0.00235 ± 0.00041 s⁻¹ | 0.000617 ± 0.00011 s⁻¹
U45A C71G | 0.00102 ± 0.00046 s⁻¹ |  | 0.00123 ± 0.00059 s⁻¹ | 0.00177 ± 0.00039 s⁻¹ | 0.000108 ± 2e-05 s⁻¹ | 0.000442 ± 9.7e-05 s⁻¹ | 0.00023 ± 8.2e-05 s⁻¹
U65A G66U | 0.00046 ± 4.8e-05 s⁻¹ | 3170 ± 620 µM | 0.00023 ± 3.3e-05 s⁻¹ | 0.000342 ± 3.1e-05 s⁻¹ |  | 7.65e-05 ± 9.6e-06 s⁻¹ | 
A33C G37A | < 1e-05 s⁻¹ |  |  |  | < 1e-05 s⁻¹ |  | < 1e-05 s⁻¹
